{"source": "paper PMC5610305", "key": {"[1]": {"biological_target": "Plasmodium falciparum actin I (unlabeled) (Plasmodium falciparum) (UniProt Q8I4X0)", "assay": "native gel or EMSA; native PAGE of 25 µM polymerized PfActI with and without ultracentrifugation at 434,500 g; running buffer with sample-matched ATP:ADP ratio and 0.1 mM MgCl2; SYPRO Orange, densitometry"}, "[2]": {"biological_target": "Plasmodium falciparum actin I (unlabeled) (Plasmodium falciparum) (UniProt Q8I4X0)", "assay": "co-sedimentation; pelleting assay: unlabeled actin polymerized overnight at 22 °C in F-buffer (50 mM KCl, 4 mM MgCl2, 1 mM EGTA), ultracentrifugation at 434,500 g or 100,000 g, 20 °C, 1 h; supernatant and pellet by SDS-PAGE densitometry; also at different actin concentrations"}, "[3]": {"biological_target": "Plasmodium falciparum actin I, pyrene-labeled (Plasmodium falciparum) (UniProt Q8I4X0)", "assay": "dilution-induced depolymerization (pyrene fluorescence); 30% pyrene-labeled actins, 5 µM polymerized overnight, diluted 100-fold to 50 nM in F-buffer; single-phase exponential decay fit"}, "[4]": {"biological_target": "Plasmodium falciparum actin I, pyrene-labeled (Plasmodium falciparum) (UniProt Q8I4X0)", "assay": "other fluorescence titration; steady-state critical concentration in classical non-polymerizing buffer (G-buffer): pyrene-labeled PfActI, 16 h at 20 °C; two-line fit of pyrene fluorescence"}, "[5]": {"biological_target": "Plasmodium falciparum actin I, pyrene-labeled (Plasmodium falciparum) (UniProt Q8I4X0)", "assay": "other fluorescence titration; steady-state critical concentration in F-buffer: pyrene-labeled actin polymerized, diluted to a series of concentrations up to 5 µM, 16 h at 20 °C (methods: overnight at 22 °C); two-line fit of pyrene fluorescence"}}}
{"substance": "Plasmodium falciparum actin I (unlabeled) (from UniProt Q8I4X0 1-376) (natural protein)", "values": [{"measurement": "% of total band intensity as dimers", "setting": "[1]", "result": 56.2, "unit": "%"}, {"measurement": "% of total band intensity as polymers", "setting": "[1]", "result": 43.4, "unit": "%"}, {"measurement": "monomer concentration left at steady state (from the monomer band)", "setting": "[1]", "result": 0.11, "unit": "µM"}, {"measurement": "stoichiometry N", "setting": "[1]", "result": 2}, {"measurement": "% of total protein in the pellet (100,000 g)", "setting": "[2]", "result": 60, "unit": "%"}, {"measurement": "% of total protein in the pellet (434,500 g)", "setting": "[2]", "result": 70, "unit": "%"}]}
{"substance": "Plasmodium falciparum actin I, pyrene-labeled (from UniProt Q8I4X0 1-376) (natural protein)", "values": [{"measurement": "apparent rate constant of depolymerization (single-phase decay)", "setting": "[3]", "result": 0.0093, "unit": "s⁻¹"}, {"measurement": "depolymerization rate constant adjusted by filament concentration (100 nm filament length assumed)", "setting": "[3]", "result": 0.4, "unit": "s⁻¹"}, {"measurement": "half-time of depolymerization", "setting": "[3]", "result": 74, "unit": "s"}, {"measurement": "Cc (critical concentration, G-buffer, the experiment shown)", "setting": "[4]", "result": 0.04, "unit": "µM"}, {"measurement": "Cc (critical concentration, steady state, G-buffer)", "setting": "[4]", "result": 0.06, "unit": "µM"}, {"measurement": "Cc (critical concentration, F-buffer, the experiment shown)", "setting": "[5]", "result": 0.13, "unit": "µM"}, {"measurement": "Cc (critical concentration, steady state, F-buffer)", "setting": "[5]", "result": 0.11, "unit": "µM"}]}
